These results are taken from IntAct's records for PubMed 30510991.

The chains are these.
B1: Forkhead box protein P3 (Homo sapiens), Q9BZS1 (parent)
chain: MPNPRPGKPSAPSLALGPSPGASPSWRAAPKASDLLGARGPGGTFQGRDLRGGAHASSSSLNPMPPSQLQLPTLPLVMVAPSGARLGPLPHLQALLQDRPHFMHQLSTVDAHARTPVLQVHPLESPAMISLTPPTTATGVFSLKARPGLPPGINVASLEWVSREPALLCTFPNPSAPRKDSTLSAVPQSSYPLLANGVCKWPGCEKVFEEPEDFLKHCQADHLLDEKGRAQCLLQREMVQSLEQQLVLEKEKLSAMQAHLAGKMALTKASSVASSDKGSCCIVAAGSQGPVVPAWSGPREAPDSLFAVRRHLWGSHGNSTFPEFLHNMDYFKFHNMRPPFTYATLIRWAILEAPEKQRTLNEIYHWFTRMFAFFRNHPATWKNAIRHNLSLHKCFVRVESEKGAVWTVDELEFRKKRSQRPSRCSNPTPGP

Variants of B1 are the subject of this test. The note with it: with ezh2_human EZH2, Q15910.
ezh2_human EZH2, Q15910, sequence (Q15910 whole entry, looked up): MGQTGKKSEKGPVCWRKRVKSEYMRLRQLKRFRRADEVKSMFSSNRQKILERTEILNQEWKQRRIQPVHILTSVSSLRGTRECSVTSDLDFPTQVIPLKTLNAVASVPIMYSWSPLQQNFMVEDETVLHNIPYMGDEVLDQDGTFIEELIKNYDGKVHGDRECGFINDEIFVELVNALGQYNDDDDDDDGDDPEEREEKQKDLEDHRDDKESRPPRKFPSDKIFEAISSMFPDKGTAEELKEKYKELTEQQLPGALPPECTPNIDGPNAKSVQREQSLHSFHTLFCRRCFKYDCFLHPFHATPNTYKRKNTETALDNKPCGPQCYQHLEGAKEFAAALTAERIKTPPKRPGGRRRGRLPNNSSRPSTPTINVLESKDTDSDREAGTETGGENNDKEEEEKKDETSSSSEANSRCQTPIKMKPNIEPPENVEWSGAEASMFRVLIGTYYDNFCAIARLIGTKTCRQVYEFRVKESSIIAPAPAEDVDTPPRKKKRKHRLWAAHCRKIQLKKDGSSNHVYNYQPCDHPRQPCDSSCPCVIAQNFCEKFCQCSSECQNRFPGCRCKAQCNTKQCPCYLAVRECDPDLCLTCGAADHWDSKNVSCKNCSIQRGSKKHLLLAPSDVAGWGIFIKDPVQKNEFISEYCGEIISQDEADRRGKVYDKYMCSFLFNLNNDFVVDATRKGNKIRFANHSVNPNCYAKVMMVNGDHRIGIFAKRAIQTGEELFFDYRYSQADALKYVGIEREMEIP
C232G: the “effect of a mutation on the interaction” value was “decreasing interaction”.
